These results are taken from publication doi:10.1101/546648 (bioRxiv, 2019).

The data set concerns the molecule itself. In words: crystal structure.

B1: Homo sapiens REXO2 (enzyme)
chain: MAAGESMAQRMVWVDLEMTGLDIEKDQIIEMACLITDSDLNILAEGPNLIIKQPDELLDSMSDWCKEHHGKSGLTKAVKESTITLQQAEYEFLSFVRQQTPPGLCPLAGNSVHEDKKFLDKYMPQFMKHLHYRIIDVSTVKELCRRWYPEEYEFAPKKAASHRALDDISESIKELQFYRNNIFKKKIDEKKRKIIENGENEKTVS
B1: the binding result was “binds”.
